Experimental data: patent US20220339270A1 (published 2022)

B1: IPN002 Fab expressed from TAU_ITR123 (CBA, hGbin, HF.T2AL) (Fab, V domains shown)
VH: EVHLVESGGALVKPGGSLKLSCAASGFSFSKYGMSWVRQTPDKRLEWVATISSSGSRTYYPDSVKGQFTISRDNAKNTLYLQMSSLKSEDTAMYYCSISWDGAMDYWGQGTSVTVSS
VL: DVLMTQTPLSLPVSLGDQASISCKSSQSIVHSNGNTYLEWYLQKPGQSPKLLVYKVSNRFSGVPDRFSGSGSGTDFTLKISRVEAEDLGTYYCFQGSLVPWAFGGGTKLEIK
B2: IPN002 Fab_ext expressed from TAU_ITR128 (CAG, HF.T2AL) (Fab, V domains shown)
VH: B1 VH
VL: B1 VL
B3: IPN002 Fab_ext expressed from TAU_ITR124 (CBA, hGbin, HF.T2AL) (Fab, V domains shown)
VH: B1 VH
VL: B1 VL
B4: IPN002 Fab_ext expressed from TAU_ITR130 (CAG, LT2AH) (Fab, V domains shown)
VH: B1 VH
VL: B1 VL
notes: Extended Fab
B5: IPN002 Fab_ext expressed from TAU_ITR129 (CBA, hGbin, LT2AH) (Fab, V domains shown)
VH: B1 VH
VL: B1 VL
notes: Extended Fab
B6: IPN002 Fab expressed from TAU_ITR127 (CAG, HF.T2AL) (Fab, V domains shown)
VH: B1 VH
VL: B1 VL
B7: IPN002 antibody expressed from CAG-IPN002-HF.T2AL (TAU_ITR1) (antibody, V domains shown)
VH: B1 VH
VL: B1 VL
B8: IPN002 antibody expressed from CB6-IPN002-HF.T2AL (TAU_ITR4) (antibody, V domains shown)
VH: B1 VH
VL: B1 VL
B9: IPN002 antibody expressed from CB6-IPN002-LF2AH (TAU_ITR11) (antibody, V domains shown)
VH: B1 VH
VL: B1 VL
B10: IPN002 antibody expressed from CAG-IPN002-LT2AH (TAU_ITR10) (antibody, V domains shown)
VH: B1 VH
VL: B1 VL
notes: Full antibody
B11: IPN002 antibody expressed from CAG-IPN002-HF.F2AL (TAU_ITR2) (antibody, V domains shown)
VH: B1 VH
VL: B1 VL
B12: IPN002 antibody expressed from CB6-IPN002-LT2AH (TAU_ITR87) (antibody, V domains shown)
VH: B1 VH
VL: B1 VL
notes: Full antibody
B13: IPN002 antibody expressed from CAG-IPN002-LF2AH (TAU_ITR9) (antibody, V domains shown)
VH: B1 VH
VL: B1 VL
B14: IPN002 antibody expressed from CB6-IPN002-HF.F2AL (TAU_ITR3) (antibody, V domains shown)
VH: B1 VH
VL: B1 VL
B15: anti-tau antibody MC1 expressed from viral genome construct MC1HIRESL (TAU_ITR75; SEQ ID NO: 2064) (antibody, mouse IgG1, kappa, V domains shown)
VH: QVQLQQSGAELMKPGASVKISCKATGYTFSNYWIEWVKQRPGHGLEWIGEILPGSDSIKYNENFKGKATFTADTSSNTAYMQLSSLTSEDSAVYYCARRGNYPDYWGQGTTLTVSS
VL: DVVMTQTPLSLPVSLGDQASISCRSSQSLVHSNGNTYLHWYLQKPGQSPKLLIYKVSNRFSGVPDRFSGSGSGTDFTLKISRVEAEDLGVYFCSQSTHVPLTFGAGTKLELKR
B16: anti-tau antibody MC1 expressed from viral genome construct MC1LIRESH (TAU_ITR80; SEQ ID NO: 2069) (antibody, mouse IgG1, kappa, V domains shown)
VH: B15 VH
VL: B15 VL
B17: anti-tau antibody MC1 expressed from viral genome construct MC1LF.F2AH (TAU_ITR78; SEQ ID NO: 2067) (antibody, V domains shown)
VH: B15 VH
VL: B15 VL
B18: anti-tau antibody MC1 expressed from viral genome construct MC1HF.P2AL (TAU_ITR73; SEQ ID NO: 2062) (antibody, V domains shown)
VH: B15 VH
VL: B15 VL
B19: anti-tau antibody MC1 expressed from viral genome construct MC1LP2AH (TAU_ITR82; SEQ ID NO: 2071) (antibody, V domains shown)
VH: B15 VH
VL: B15 VL
B20: anti-tau antibody MC1 expressed from viral genome construct MC1LF2AH (TAU_ITR79; SEQ ID NO: 2068) (antibody, V domains shown)
VH: B15 VH
VL: B15 VL
B21: anti-tau antibody MC1 expressed from viral genome construct MC1LF.P2AH (TAU_ITR83; SEQ ID NO: 2072) (antibody, V domains shown)
VH: B15 VH
VL: B15 VL
B22: anti-tau antibody MC1 expressed from viral genome construct MC1HF.F2AL (TAU_ITR72; SEQ ID NO: 2061) (antibody, V domains shown)
VH: B15 VH
VL: B15 VL

What follows are binders tested against T1, wild-type tau (441 amino acids; tau441; NP_005901.2) (human, UniProt P10636 1-758) (assay: wtTau ELISA).
T1 construct: Unphosphorylated recombinant tau441 used in the wild-type tau ELISA; also called wt tau441; wtTau
T1 sequence (P10636 other isoform, or with tags, fused parts or gaps limits assumed): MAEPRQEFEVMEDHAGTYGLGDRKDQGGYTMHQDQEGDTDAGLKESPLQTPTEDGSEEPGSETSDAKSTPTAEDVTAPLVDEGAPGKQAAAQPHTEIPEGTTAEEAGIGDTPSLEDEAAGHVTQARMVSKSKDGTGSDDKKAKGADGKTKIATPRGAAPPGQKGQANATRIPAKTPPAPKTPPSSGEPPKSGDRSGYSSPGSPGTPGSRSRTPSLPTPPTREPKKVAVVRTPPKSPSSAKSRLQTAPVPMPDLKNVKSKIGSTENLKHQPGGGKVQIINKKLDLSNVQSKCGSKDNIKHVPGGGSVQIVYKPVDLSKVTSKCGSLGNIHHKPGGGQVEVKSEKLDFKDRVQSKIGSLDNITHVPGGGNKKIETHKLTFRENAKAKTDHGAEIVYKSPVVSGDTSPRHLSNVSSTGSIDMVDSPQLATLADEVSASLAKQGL

Q: Does B1 bind?
A: binds

Q: Does B2 bind?
A: binds

Q: Does B3 bind?
A: binds

Q: Does B4 bind?
A: binds

Q: Does B5 bind?
A: binds

Q: Does B6 bind?
A: binds

The binders below were run against T1, wild-type tau (441 amino acids; tau441; …) (assay: wild-type tau ELISA, ExpiCHO supernatant).

Q: Does B7 bind?
A: binds

Q: Does B8 bind?
A: binds

Q: Does B9 bind?
A: binds

Q: Does B10 bind?
A: binds

Q: Does B11 bind?
A: binds

Q: Does B12 bind?
A: binds

Q: Does B13 bind?
A: binds

Q: Does B14 bind?
A: binds

What follows are binders tested against T2, extracellular tau in the form of paired helical filaments (ePHF tau) (UniProt P10636-8 1-441, limits assumed) (assay: ePHF tau ELISA, ePHF coated; antibody at 0.7 ng/ml; anti-mouse-HRP).
T2 construct: Aggregated, hyperphosphorylated tau preparation; not a single defined polypeptide
T2 sequence (P10636 other isoform, or with tags, fused parts or gaps limits assumed): as above

Q: Which OD450 does the source give for B15 here?
A: 0.1 OD450

Q: Which OD450 does the source give for B16 here?
A: 0.1 OD450

Q: Which OD450 does the source give for B17 here?
A: 0.1 OD450

Q: With B18 as the binder, how does the OD450 read?
A: 0.1 OD450

Q: How did the OD450 turn out when B19 was run?
A: 0.1 OD450

Q: With B20 as the binder, how does the OD450 read?
A: 0.1 OD450

Q: B21 was tested. Which OD450 did it give?
A: 0.1 OD450

Q: B22 was tested. Which OD450 did it give?
A: 0.1 OD450

The binders below were run against T2, extracellular tau in the form of paired … (assay: ePHF tau ELISA, ePHF coated; antibody at 2.1 ng/ml; anti-mouse-HRP).

Q: Which OD450 does the source give for B15 here?
A: 0.1 OD450

Q: B16 was tested. Which OD450 did it give?
A: 0.1 OD450

Q: B17 was tested. Which OD450 did it give?
A: 0.1 OD450

Q: Which OD450 does the source give for B18 here?
A: 0.1 OD450

Q: How did the OD450 turn out when B19 was run?
A: 0.1 OD450

Q: Which OD450 does the source give for B20 here?
A: 0.1 OD450

Q: Which OD450 does the source give for B21 here?
A: 0.1 OD450

Q: With B22 as the binder, how does the OD450 read?
A: 0.1 OD450

These binders were tested against T2, extracellular tau in the form of paired … (assay: ePHF tau ELISA, ePHF coated; antibody at 6.2 ng/ml; anti-mouse-HRP).

Q: Which OD450 does the source give for B15 here?
A: 0.1 OD450

Q: With B16 as the binder, how does the OD450 read?
A: 0.1 OD450

Q: For B17, which OD450 is on record?
A: 0.1 OD450

Q: For B18, which OD450 is on record?
A: 0.1 OD450

Q: For B19, which OD450 is on record?
A: 0.1 OD450

Q: Which OD450 does the source give for B20 here?
A: 0.1 OD450

Q: How did the OD450 turn out when B21 was run?
A: 0.1 OD450

Q: How did the OD450 turn out when B22 was run?
A: 0.2 OD450

What follows are binders tested against T2, extracellular tau in the form of paired … (assay: ePHF tau ELISA, ePHF coated; antibody at 18.5 ng/ml; anti-mouse-HRP).

Q: For B15, which OD450 is on record?
A: 0.1 OD450

Q: How did the OD450 turn out when B16 was run?
A: 0.2 OD450

Q: How did the OD450 turn out when B17 was run?
A: 0.2 OD450

Q: With B18 as the binder, how does the OD450 read?
A: 0.2 OD450

Q: For B19, which OD450 is on record?
A: 0.1 OD450

Q: With B20 as the binder, how does the OD450 read?
A: 0.2 OD450

Q: How did the OD450 turn out when B21 was run?
A: 0.1 OD450

Q: How did the OD450 turn out when B22 was run?
A: 0.3 OD450

The binders below were run against T2, extracellular tau in the form of paired … (assay: ePHF tau ELISA, ePHF coated; antibody at 55.6 ng/ml; anti-mouse-HRP).

Q: How did the OD450 turn out when B15 was run?
A: 0.2 OD450

Q: How did the OD450 turn out when B16 was run?
A: 0.3 OD450

Q: Which OD450 does the source give for B17 here?
A: 0.4 OD450

Q: B18 was tested. Which OD450 did it give?
A: 0.4 OD450

Q: Which OD450 does the source give for B19 here?
A: 0.2 OD450

Q: How did the OD450 turn out when B20 was run?
A: 0.4 OD450

Q: B21 was tested. Which OD450 did it give?
A: 0.1 OD450

Q: Which OD450 does the source give for B22 here?
A: 0.5 OD450

Each binder was assayed against T2, extracellular tau in the form of paired … (assay: ePHF tau ELISA, ePHF coated; antibody at 166.7 ng/ml; anti-mouse-HRP).

Q: Which OD450 does the source give for B15 here?
A: 0.3 OD450

Q: How did the OD450 turn out when B16 was run?
A: 0.6 OD450

Q: Which OD450 does the source give for B17 here?
A: 0.7 OD450

Q: B18 was tested. Which OD450 did it give?
A: 0.6 OD450

Q: Which OD450 does the source give for B19 here?
A: 0.4 OD450

Q: B20 was tested. Which OD450 did it give?
A: 0.7 OD450

Q: With B21 as the binder, how does the OD450 read?
A: 0.2 OD450

Q: With B22 as the binder, how does the OD450 read?
A: 0.7 OD450

These binders were tested against T2, extracellular tau in the form of paired … (assay: ePHF tau ELISA, ePHF coated; antibody at 500.0 ng/ml; anti-mouse-HRP).

Q: How did the OD450 turn out when B15 was run?
A: 0.7 OD450

Q: For B16, which OD450 is on record?
A: 0.9 OD450

Q: How did the OD450 turn out when B17 was run?
A: 1 OD450

Q: How did the OD450 turn out when B18 was run?
A: 0.9 OD450

Q: For B19, which OD450 is on record?
A: 0.7 OD450

Q: Which OD450 does the source give for B20 here?
A: 1 OD450

Q: With B21 as the binder, how does the OD450 read?
A: 0.4 OD450

Q: How did the OD450 turn out when B22 was run?
A: 1 OD450

What follows are binders tested against T2, extracellular tau in the form of paired … (assay: ePHF tau ELISA, ePHF coated; antibody at 1000.0 ng/ml; anti-mouse-HRP).

Q: B15 was tested. Which OD450 did it give?
A: 1 OD450

Q: With B16 as the binder, how does the OD450 read?
A: 1 OD450

Q: For B17, which OD450 is on record?
A: 1.1 OD450

Q: B18 was tested. Which OD450 did it give?
A: 0.9 OD450

Q: B19 was tested. Which OD450 did it give?
A: 0.8 OD450

Q: How did the OD450 turn out when B20 was run?
A: 1.1 OD450

Q: Which OD450 does the source give for B21 here?
A: 0.6 OD450

Q: With B22 as the binder, how does the OD450 read?
A: 1.1 OD450
